Test results from US20120114665A1 (Regeneron, published 2012).

T1: human RANKL (receptor activator of NF-κB ligand) (human, UniProt O14788 140-317, limits assumed)
T1 construct: also called hRANKL; hRANKL native trimer
T1 sequence: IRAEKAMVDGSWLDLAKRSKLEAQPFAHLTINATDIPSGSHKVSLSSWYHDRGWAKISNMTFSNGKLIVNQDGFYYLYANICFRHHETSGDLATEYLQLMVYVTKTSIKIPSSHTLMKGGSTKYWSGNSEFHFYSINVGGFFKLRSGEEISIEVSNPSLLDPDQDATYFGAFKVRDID

T2: penta-his-tagged monkey (Macaca fascicularis) RANKL (Macaca fascicularis, UniProt O14788 125-317 (human entry))
T2 construct: also called his-mfRANKL; mfRANKL; not shown: penta-his tag
T2 chain: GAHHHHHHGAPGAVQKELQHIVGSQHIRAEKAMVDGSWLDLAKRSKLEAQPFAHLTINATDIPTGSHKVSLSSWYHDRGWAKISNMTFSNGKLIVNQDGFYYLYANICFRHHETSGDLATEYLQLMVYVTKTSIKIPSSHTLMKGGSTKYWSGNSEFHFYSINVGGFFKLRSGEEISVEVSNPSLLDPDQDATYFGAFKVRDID

T3: penta-his-tagged hRANKL (human)
T3 construct: also called his-hRANKL; not shown: penta-his tag
T3 chain: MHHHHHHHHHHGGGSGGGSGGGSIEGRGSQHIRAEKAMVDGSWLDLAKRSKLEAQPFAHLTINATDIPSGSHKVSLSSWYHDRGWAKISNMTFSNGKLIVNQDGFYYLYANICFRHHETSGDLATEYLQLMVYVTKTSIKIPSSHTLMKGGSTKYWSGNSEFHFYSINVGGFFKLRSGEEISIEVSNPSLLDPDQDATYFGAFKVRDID

B1: H4H002P (antibody, V domains shown)
VH: QVQLVESGGGVVQPGRSLRLSCAASGFTFTGYGMHWVRQAPDKGLEWVAVISYDGTNKYYVDSVKGRFTISRDNSQNTLYLQMNSLRAEDTAVYYCAKCLSGTYWGYGMDVWGQGTTVTVS
VL: DIQMTQSPSTLSASVGDRVTITCRASRSINSWLAWYQQKPGKAPKLLIYKASSLESGVPSRFSGSGSGTEFTLTISSLQPDDFASYYCQQYNNYSWTFGQGTKVEIK
notes: Purified antibody from clone 1F8
B2: 2H12 (antibody, V domains shown)
VH: QVQLVQSGGGVVQPGRSLRLSCAASGFTFSGYGMHWVRQAPGKGLDWVTVISYDGSNKHYADSVKGRFTISRDNSKNTLYLQMSSLGPEDTAVYYCAKSLSGTYWGYGMDVWGQGTTVTVSS
VL: AIQMTQSPSTLSASVGDRVTITCRASQNISSWLAWYQQKPGKAPKLLIYKASSLESGVPSRFSGSGSGTEFTLTVSSLQPDDFATYYCQQYNRYSWTFGQGTKVEIK
notes: From direct isolation of splenocytes; captured on anti-hFc; also called H4H010N
B3: 2H10 (antibody, V domains shown)
VH: QVQLVESGGGVVQPGRSLRLSCAASGFTFSGYGIHWVRQAPDKGLEWVAVISYDGTNKYYGDSVKGRFTISRDNTKNTLYLQMNSLRTEDTAVYYCAKSLSGTYWGYGMDVWGQGTTVTVSS
VL: AIQMTQSPSTLSASVGDRVTITCRASQNIGNWLAWYQQKPGKAPKLLIYKASSLQNGVPSRFSGSGSGTEFTLTISSLQPDDFATYYCQRYNSYSWTFGQGTKVEIK
notes: From direct isolation of splenocytes; captured on anti-hFc; also called H4H009N
B4: H4H007P (antibody, V domains shown)
VH: QVQLVESGGGVVQPGRSLRLSCAASGFTFSGYGMHWVRQAPGMGLEWVAVISYDGINKYYADSVKGRFTISRDNSKNTLFLQMNSLRAEDTALYYCAKCLSGTYWGYGMDVWGQGTTVTVS
VL: DIQMTQSPSTLSASVGDRVTITCRASQSISSWLAWYQLKPGKAPKLLIYKASSLESGVPSRFGGSGSGTEFTLTISSLQPDDFATYYCQHYNSYSWTFGQGTKVEIK
notes: Purified antibody from clone 2E12
B5: 2E10 (antibody, V domains shown)
VH: QVQLVQSGGGVVHPGRSLTLSCAASGFTFSGYGMHWVRQAPGKGLEWVAVISYDGINKYYADSVKGRFTISRDNSKNTLYLQMNSLRAEDTAIYYCAKCLSGSYWGFGMDVWGQGTTVTVSS
VL: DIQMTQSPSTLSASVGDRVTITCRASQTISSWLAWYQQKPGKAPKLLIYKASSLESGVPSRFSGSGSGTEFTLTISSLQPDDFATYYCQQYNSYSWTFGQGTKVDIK
notes: From direct isolation of splenocytes; captured on anti-hFc; also called H4H005N
B6: H4H009G (antibody, V domains shown)
VH: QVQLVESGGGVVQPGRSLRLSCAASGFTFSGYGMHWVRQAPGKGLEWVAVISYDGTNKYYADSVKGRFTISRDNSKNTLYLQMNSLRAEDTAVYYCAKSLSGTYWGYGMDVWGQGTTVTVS
VL: DIQMTQSPSTLSASVGDRVTITCRASQNIGNWLAWYQQKPGKAPKLLIYKASSLESGVPSRFSGSGSGTEFTLTISSLQPDDFATYYCQRYNSYSWTFGQGTKVEIK
notes: Purified antibody from clone 2H10
B7: H4H006G (antibody, V domains shown)
VH: QVQLVESGGGVVQPGRSLRLSCAASGFTFGGYGMHWVRQAPGKGLEWVAVISYDGNNKYYADSVKGRFTISRDNSKNTLYLQMNSLRAEDTAVYYCAKCLSGTYWGYGMDGWGQGTTVTVS
VL: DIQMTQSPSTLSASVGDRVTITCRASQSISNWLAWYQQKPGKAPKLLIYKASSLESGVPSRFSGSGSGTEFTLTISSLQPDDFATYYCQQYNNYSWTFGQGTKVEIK
notes: Purified antibody from clone 2E11
B8: 2G10 (antibody, V domains shown)
VH: QVQLVQSGGGVVQPGRSLRLSCAASGFTFSGFGMHWVRQAPGKGLEWVAIISYDGRNKYYADSVKGRFTISRDNSKNTLYLQMNSLRAEDTAVYYCAKSLSGTYWGYGMDVWGQGTTVTVSS
VL: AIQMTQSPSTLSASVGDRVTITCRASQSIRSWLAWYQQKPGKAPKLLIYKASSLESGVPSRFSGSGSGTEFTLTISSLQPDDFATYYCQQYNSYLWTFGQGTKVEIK
notes: From direct isolation of splenocytes; captured on anti-hFc; also called H4H008N
B9: H4H005G (antibody, V domains shown)
VH: QVQLVESGGGVVQPGRSLRLSCAASGFTFSGYGMHWVRQAPGKGLEWVAVISYDGINKYYADSVKGRFTISRDNSKNTLYLQMNSLRAEDTAVYYCAKCLSGSYWGFGMDVWGQGTTVTVS
VL: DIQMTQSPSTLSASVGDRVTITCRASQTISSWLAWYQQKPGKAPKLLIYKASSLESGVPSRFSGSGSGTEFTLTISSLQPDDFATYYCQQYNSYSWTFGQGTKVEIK
notes: Purified antibody from clone 2E10
B10: 2E12 (antibody, V domains shown)
VH: QVQLVQSGGGVVQPGRSLRLSCAASGFTFSGYGMHWVRQAPGMGLEWVAVISYDGINKYYADSVKGRFTISRDNSKNTLFLQMNSLRAEDTALYYCAKCLSGTYWGYGMDVWGQGTTVTVSS
VL: AIQMTQSPSTLSASVGDRVTITCRASQSISSWLAWYQLKPGKAPKLLIYKASSLESGVPSRFGGSGSGTEFTLTISSLQPDDFATYYCQHYNSYSWTFGQGTKVEIK
notes: From direct isolation of splenocytes; captured on anti-hFc; also called H4H007N
B11: 1F8 (antibody, V domains shown)
VH: QVQLVQSGGGVVQPGRSLRLSCAASGFTFTGYGMHWVRQAPDKGLEWVAVISYDGTNKYYVDSVKGRFTISRDNSQNTLYLQMNSLRAEDTAVYYCAKCLSGTYWGYGMDVWGQGTTVTVSS
VL: AIQMTQSPSTLSASVGDRVTITCRASRSINSWLAWYQQKPGKAPKLLIYKASSLESGVPSRFSGSGSGTEFTLTISSLQPDDFASYYCQQYNNYSWTFGQGTKVEIK
notes: From direct isolation of splenocytes; captured on anti-hFc; also called H4H002N
B12: 2E11 (antibody, V domains shown)
VH: QVQLVQSGGGVVQPGRSLRLSCAASGFTFGGYGMHWVRQAPDKGLEWVAVISYDGNNKYYVDSVKGRFTISRDNSKNMLYLQMNSLRAEDTAVYYCAKCLSGTYWGYGMDGWGQGTTVTVSS
VL: DIQMTQSPSTLSASVGDRVTITCRASQSISNWLAWYQQKPGKAPKLLIYKASNLQSGVPSRFSGSGSGTEFTLTISSLQPDDFATYYCQQYNNYSWTFGQGTKVEIK
notes: From direct isolation of splenocytes; captured on anti-hFc; also called H4H006N
B13: H4H005P (antibody, V domains shown)
VH: QVQLVESGGGVVHPGRSLTLSCAASGFTFSGYGMHWVRQAPGKGLEWVAVISYDGINKYYADSVKGRFTISRDNSKNTLYLQMNSLRAEDTAIYYCAKCLSGSYWGFGMDVWGQGTTVTVS
VL: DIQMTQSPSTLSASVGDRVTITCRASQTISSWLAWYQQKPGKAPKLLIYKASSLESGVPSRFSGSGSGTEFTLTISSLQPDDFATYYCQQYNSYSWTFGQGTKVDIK
notes: as for B9
B14: H4H010P (antibody, V domains shown)
VH: QVQLVESGGGVVQPGRSLRLSCAASGFTFSGYGMHWVRQAPGKGLDWVTVISYDGSNKHYADSVKGRFTISRDNSKNTLYLQMSSLGPEDTAVYYCAKSLSGTYWGYGMDVWGQGTTVTVS
VL: DIQMTQSPSTLSASVGDRVTITCRASQNISSWLAWYQQKPGKAPKLLIYKASSLESGVPSRFSGSGSGTEFTLTVSSLQPDDFATYYCQQYNRYSWTFGQGTKVEIK
notes: Purified antibody from clone 2H12
B15: H4H006P (antibody, V domains shown)
VH: QVQLVESGGGVVQPGRSLRLSCAASGFTFGGYGMHWVRQAPDKGLEWVAVISYDGNNKYYVDSVKGRFTISRDNSKNMLYLQMNSLRAEDTAVYYCAKCLSGTYWGYGMDGWGQGTTVTVS
VL: DIQMTQSPSTLSASVGDRVTITCRASQSISNWLAWYQQKPGKAPKLLIYKASNLQSGVPSRFSGSGSGTEFTLTISSLQPDDFATYYCQQYNNYSWTFGQGTKVEIK
notes: as for B7

Legend:
[1] = molecular target: T1, human RANKL (receptor activator of …); test: SPR (BIACORE), purified antibody, 25°C
[2] = molecular target: T1, human RANKL (receptor activator of …); test: cell-based or functional assay
[3] = molecular target: T2, penta-his-tagged monkey (Macaca …); test: competition ELISA: 150 pM his-mfRANKL pre-mixed with antibody, free RANKL detected on hRANK-hFc plate
Method: (§1) Briefly, hRANK-hFc protein was coated on a 96-well plate in PBS buffer overnight at 4° C. at 2 μg/ml, and nonspecific binding was blocked with BSA, to form a hRANK-hFc surface.

[4] = molecular target: T3, penta-his-tagged hRANKL; test: competition ELISA: 150 pM his-hRANKL pre-mixed with antibody, free RANKL detected on hRANK-hFc plate
Method: as §1

[5] = molecular target: T1, human RANKL (receptor activator of …); test: SPR (BIACORE), purified antibody, 37°C
[6] = molecular target: T1, human RANKL (receptor activator of …); test: SPR (BIACORE 2000), antibody captured on anti-hFc, hRANKL injected
Method: Equilibrium dissociation constants (KD values) for antigen binding to the selected antibodies generated by hybridoma cell lines described above were determined by surface kinetics in a real-time biosensor surface plasmon resonance assay (BIACORE™ 2000). Each selected antibody was captured on a goat anti-mouse IgG polyclonal antibody surface created through direct chemical coupling to a BIACORE™ chip to form a captured antibody surface.
Each selected antibody was captured on a goat anti-hFc polyclonal antibody (Jackson Immuno Research Lab) surface created through direct chemical coupling to a BIACORE™ chip to form a captured antibody surface (Table 2).

Kd [1]	IC50, hRANKL-inducible luciferase activity in HK293/RANK/NFκB-luc-eGFP cells [2]	IC50 [3]	IC50 [4]	Kd [5]	Kd [6]	Binder
262 pM	214 pM	1360 pM	165 pM	53.1 pM		B1
					33.1 pM	B2
					15.8 pM	B3
335 pM	452 pM	2760 pM	335 pM	57.8 pM		B4
					17.2 pM	B5
198 pM	102 pM	875 pM	65 pM	42.4 pM		B6
265 pM	171 pM	1240 pM	195 pM	41.5 pM		B7
					28 pM	B8
76.2 pM	1060 pM	9580 pM	3140 pM	24.1 pM		B9
					95.7 pM	B10
					7.85 pM	B11
					16 pM	B12
601 pM	1170 pM	4320 pM	1160 pM	45.3 pM		B13
69.7 pM	51 pM	150 pM	45 pM	77.9 pM		B14
172 pM	80 pM	420 pM	85 pM	44 pM		B15
